These results are taken from patent US20220409739A1 (OXFORD UNIVERSITY INNOVATION, published 2022).

B2: GAPDH-cMyc protein (enzyme)
chain: not shown
notes: also called GAPDH-cMye; not shown: cMyc tag

Common to all, as to assay: co-immunoprecipitation on cMyc beads from HEK293T cell lysate, western blot
A general note: In western blotting, separated proteins are transferred to a membrane and probed.

The experiment “GAPDH-cMyc protein” addresses B2.
The next experiment concerns the target Argonuate 2 (Ago2) (UniProt Q9UKV8 1-859).
In experiment [1] the target is Insulin triphosphate receptor 3 (IPR3) (UniProt Q14573 1-2671).
Chain of Insulin triphosphate receptor 3 (IPR3) (Q14573 whole entry): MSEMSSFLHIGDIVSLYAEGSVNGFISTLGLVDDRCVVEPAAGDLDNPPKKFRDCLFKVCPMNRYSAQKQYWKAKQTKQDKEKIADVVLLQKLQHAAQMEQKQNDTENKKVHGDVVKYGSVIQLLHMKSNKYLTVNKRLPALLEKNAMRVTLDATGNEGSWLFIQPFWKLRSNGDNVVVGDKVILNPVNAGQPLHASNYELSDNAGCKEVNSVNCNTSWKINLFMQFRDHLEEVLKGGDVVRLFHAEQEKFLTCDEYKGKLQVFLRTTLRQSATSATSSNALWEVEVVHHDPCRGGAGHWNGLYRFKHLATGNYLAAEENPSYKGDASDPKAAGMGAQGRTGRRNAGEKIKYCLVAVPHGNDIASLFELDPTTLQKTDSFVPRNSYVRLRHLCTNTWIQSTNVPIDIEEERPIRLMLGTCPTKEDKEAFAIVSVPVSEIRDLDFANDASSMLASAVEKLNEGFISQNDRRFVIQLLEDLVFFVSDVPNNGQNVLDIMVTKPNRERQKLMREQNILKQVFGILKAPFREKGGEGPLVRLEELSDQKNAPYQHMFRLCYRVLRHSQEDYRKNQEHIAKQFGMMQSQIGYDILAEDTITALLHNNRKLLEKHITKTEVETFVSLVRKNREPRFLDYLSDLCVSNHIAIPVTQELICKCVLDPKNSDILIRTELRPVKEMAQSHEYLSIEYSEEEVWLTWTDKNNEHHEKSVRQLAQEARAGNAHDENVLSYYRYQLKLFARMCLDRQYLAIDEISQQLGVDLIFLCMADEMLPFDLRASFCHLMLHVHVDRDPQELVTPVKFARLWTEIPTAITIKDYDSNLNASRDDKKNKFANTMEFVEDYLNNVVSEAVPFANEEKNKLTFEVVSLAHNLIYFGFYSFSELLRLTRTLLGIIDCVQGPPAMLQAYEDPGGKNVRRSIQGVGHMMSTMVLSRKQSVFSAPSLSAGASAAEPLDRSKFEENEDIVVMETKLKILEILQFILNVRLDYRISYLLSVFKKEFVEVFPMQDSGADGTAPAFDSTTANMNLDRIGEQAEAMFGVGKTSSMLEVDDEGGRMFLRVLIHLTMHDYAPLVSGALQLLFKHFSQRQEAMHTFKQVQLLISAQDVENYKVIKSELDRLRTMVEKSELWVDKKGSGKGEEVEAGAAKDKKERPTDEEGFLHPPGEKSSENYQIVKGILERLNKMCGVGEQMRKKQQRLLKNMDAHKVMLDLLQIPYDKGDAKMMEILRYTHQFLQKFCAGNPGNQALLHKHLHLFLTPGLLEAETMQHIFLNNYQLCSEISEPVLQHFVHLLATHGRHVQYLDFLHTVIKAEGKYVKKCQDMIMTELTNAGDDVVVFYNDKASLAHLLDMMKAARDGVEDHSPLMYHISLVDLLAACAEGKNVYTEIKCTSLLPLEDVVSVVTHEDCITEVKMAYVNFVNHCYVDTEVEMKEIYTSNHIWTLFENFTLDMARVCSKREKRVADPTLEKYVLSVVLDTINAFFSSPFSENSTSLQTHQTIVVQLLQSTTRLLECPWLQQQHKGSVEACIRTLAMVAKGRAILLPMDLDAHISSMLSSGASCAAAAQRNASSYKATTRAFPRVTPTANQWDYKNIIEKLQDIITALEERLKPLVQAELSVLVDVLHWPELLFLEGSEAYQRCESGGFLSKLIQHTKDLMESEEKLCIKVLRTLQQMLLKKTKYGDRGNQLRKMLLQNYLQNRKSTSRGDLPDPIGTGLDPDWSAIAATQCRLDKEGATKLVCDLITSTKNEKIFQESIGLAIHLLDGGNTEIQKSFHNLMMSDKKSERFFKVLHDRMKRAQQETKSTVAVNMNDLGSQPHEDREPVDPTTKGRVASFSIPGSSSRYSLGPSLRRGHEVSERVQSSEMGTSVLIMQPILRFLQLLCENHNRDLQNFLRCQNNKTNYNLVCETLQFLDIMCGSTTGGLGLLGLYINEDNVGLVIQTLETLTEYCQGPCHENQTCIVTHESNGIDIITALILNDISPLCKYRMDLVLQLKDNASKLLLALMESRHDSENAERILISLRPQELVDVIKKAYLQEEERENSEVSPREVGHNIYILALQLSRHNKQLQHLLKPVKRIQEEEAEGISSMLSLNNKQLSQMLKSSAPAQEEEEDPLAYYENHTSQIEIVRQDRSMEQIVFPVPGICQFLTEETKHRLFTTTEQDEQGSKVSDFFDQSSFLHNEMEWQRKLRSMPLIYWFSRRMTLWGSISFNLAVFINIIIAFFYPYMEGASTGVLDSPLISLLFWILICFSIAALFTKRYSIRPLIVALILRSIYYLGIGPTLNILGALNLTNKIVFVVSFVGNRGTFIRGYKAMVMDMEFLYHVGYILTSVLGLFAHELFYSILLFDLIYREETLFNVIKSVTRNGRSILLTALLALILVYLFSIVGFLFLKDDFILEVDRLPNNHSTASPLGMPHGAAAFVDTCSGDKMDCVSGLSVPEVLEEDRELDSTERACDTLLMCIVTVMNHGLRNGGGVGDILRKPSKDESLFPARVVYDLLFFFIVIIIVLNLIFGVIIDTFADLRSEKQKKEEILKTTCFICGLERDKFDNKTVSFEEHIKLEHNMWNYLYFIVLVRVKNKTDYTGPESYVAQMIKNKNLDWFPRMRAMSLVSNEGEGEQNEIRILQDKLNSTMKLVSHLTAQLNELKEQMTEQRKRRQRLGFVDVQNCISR

Chain of Argonuate 2 (Ago2) (Q9UKV8 whole entry): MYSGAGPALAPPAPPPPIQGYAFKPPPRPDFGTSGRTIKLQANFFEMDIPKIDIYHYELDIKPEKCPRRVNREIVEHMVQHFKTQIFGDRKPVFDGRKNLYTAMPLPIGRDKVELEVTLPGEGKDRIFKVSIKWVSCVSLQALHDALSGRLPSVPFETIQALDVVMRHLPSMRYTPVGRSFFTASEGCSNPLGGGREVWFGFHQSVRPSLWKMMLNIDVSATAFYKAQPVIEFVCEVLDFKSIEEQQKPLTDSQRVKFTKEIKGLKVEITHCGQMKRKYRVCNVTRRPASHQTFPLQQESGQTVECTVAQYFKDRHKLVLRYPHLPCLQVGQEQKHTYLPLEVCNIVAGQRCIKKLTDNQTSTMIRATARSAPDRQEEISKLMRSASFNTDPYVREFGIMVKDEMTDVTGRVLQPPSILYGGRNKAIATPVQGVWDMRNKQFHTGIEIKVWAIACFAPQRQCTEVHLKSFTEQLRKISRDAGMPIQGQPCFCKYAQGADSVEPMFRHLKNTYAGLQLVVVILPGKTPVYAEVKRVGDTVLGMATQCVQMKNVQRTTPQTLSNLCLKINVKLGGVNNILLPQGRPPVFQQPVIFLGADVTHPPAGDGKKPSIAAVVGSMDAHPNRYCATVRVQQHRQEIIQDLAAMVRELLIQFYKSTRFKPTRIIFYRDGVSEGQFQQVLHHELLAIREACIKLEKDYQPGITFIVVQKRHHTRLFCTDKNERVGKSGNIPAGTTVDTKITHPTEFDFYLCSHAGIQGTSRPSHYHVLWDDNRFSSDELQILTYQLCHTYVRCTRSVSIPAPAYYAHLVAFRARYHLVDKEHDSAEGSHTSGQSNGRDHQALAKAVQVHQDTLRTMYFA
Chain of GAPDH-cMyc protein (P04406 whole entry): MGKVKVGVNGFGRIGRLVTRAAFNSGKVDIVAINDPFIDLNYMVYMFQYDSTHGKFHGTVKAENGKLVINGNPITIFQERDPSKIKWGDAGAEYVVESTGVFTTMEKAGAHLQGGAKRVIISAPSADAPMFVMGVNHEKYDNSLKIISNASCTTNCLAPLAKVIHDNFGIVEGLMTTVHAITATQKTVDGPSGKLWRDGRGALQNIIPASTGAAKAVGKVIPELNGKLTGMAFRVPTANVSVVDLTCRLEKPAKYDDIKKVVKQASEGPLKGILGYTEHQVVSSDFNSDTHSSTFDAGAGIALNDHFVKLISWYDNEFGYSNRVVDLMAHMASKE

B1: mitochondrial import receptor subunit TOM20 (other, UniProt Q15388 1-145, looked up)
chain: MVGRNSAIAAGVCGALFIGYCIYFDRKRRSDPNFKNRLRERRKKQKLAKERAGLSKLPDLKDAEAVQKFFLEEIQLGEELLAQGEYEKGVDHLTNAIAVCGQPQQLLQVLQQTLPPPVFQMLLTKLPTISQRIVSAQSLAEDDVE
For B1, the binding result in the experiment with GAPDH-cMyc protein is “no binding”.

For the molecule B2, the binding result (with Argonuate 2 (Ago2); in experiment [1]) was “no binding” in each case.
